According to the supplement of paper PMC5998384:

Key:
HeLa Kyoto [1] = assay: solubility in G1/S (NP-40 vs SDS abundance) (log2 ratio); higher = more soluble; conditions: cell cycle stage: G1/S
HeLa Kyoto [2] = assay: solubility change mitosis vs G1/S (difference of NP-40 vs SDS log2 ratios) (log2 ratio difference); higher = more soluble in mitosis
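Throughout, for solubility change mitosis vs G1/S (difference of NP-40 vs SDS log2 ratios): synchronized HeLa Kyoto cells (double thymidine block for G1/S, nocodazole release for mitosis), protein amounts in NP-40 versus SDS lysates quantified by mass spectrometry, three biological replicates.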
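Throughout, for solubility in G1/S (NP-40 vs SDS abundance): HeLa Kyoto cells arrested at G1/S by double thymidine block, proteins quantified by TMT10plex mass spectrometry in mild NP-40 versus SDS extracts, three biological replicates.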

In the case of “MPPGKVLQPVLKMKVDELFLYWLSEASTQRMLQDCLRRIKAPGRDQPTPGDGEQPGAWPTAPLAAPRPSGLEPPGTPGPGPALPLGAASSPRNAPHVRGTRRSAGTRVVQTRKEEPLPPATSQSIPTFYFPRGRPQDSVNVDAVISKIESTFARFPHERATMDDMGLVAKACGCPLYWKGPLFYGAGGERTGSVSVHKFVAMWRKILQNCHDDAAKFVHLLMSPGCNYLVQEDFVPFLQDVVNTHPGLSFLKEASEFHSRYITTVIQRIFYAVNRSWSGRITCAELRRSSFLQNVALLEEEADINQLTEFFSYEHFYVIYCKFWELDTDHDLLIDADDLARHNDHALSTKMIDRIFSGAVTRGRKVQKEGKISYADFVWFLISEEDKKTPTSIEYWFRCMDLDGDGALSMFELEYFYEEQCRRLDSMAIEALPFQDCLCQMLDLVKPRTEGKITLQDLKRCKLANVFFDTFFNIEKYLDHEQKEQISLLRDGDSGGPELSDWEKYAAEEYDILVAEETAGEPWEDGFEAELSPVEQKLSALRSPLAQRPFFEAPSPLGAVDLYEYACGDEDLEPL [PPP2R3B]”, the “solubility in G1/S (log2)” value (HeLa Kyoto [1]) is reported as 0.0833 and the “solubility change mitosis (log2)” value (HeLa Kyoto [2]) is reported as -0.203.
“MQAEGRGTGGSTGDADGPGGPGIPDGPGGNAGGPGEAGATGGRGPRGAGAARASGPRGGAPRGPHGGAASAQDGRCPCGARRPDSRLLELHITMPFSSPMEAELVRRILSRDAAPLPRPGAVLKDFTVSGNLLFMSVRDQDREGAGRMRVVGWGLGSASPEGQKARDLRTPKHKVSEQRPGTPGPPPPEGAQGDGCRGVAFNVMFSAPHI [CTAG2]” was tested, and the “solubility in G1/S (log2)” value (HeLa Kyoto [1]) was 1 and the “solubility change mitosis (log2)” value (HeLa Kyoto [2]) was -0.32.
With “MQARYSVSSPNSLGVVPYLGGEQSYYRAAAAAAGGGYTAMPAPMSVYSHPAHAEQYPGGMARAYGPYTPQPQPKDMVKPPYSYIALITMAIQNAPDKKITLNGIYQFIMDRFPFYRDNKQGWQNSIRHNLSLNECFVKVPRDDKKPGKGSYWTLDPDSYNMFENGSFLRRRRRFKKKDAVKDKEEKDRLHLKEPPPPGRQPPPAPPEQADGNAPGPQPPPVRIQDIKTENGTCPSPPQPLSPAAALGSGSAAAVPKIESPDSSSSSLSSGSSPPGSLPSARPLSLDGADSAPPPPAPSAPPPHHSQGFSVDNIMTSLRGSPQSAAAELSSGLLASAAASSRAGIAPPLALGAYSPGQSSLYSSPCSQTSSAGSSGGGGGGAGAAGGAGGAGTYHCNLQAMSLYAAGERGGHLQGAPGGAGGSAVDDPLPDYSLPPVTSSSSSSLSHGGGGGGGGGGQEAGHHPAAHQGRLTSWYLNQAGGDLGHLASAAAAAAAAGYPGQQQNFHSVREMFESQRIGLNNSPVNGNSSCQMAFPSSQSLYRTSGAFVYDCSKF [FOXC1]” the “solubility in G1/S (log2)” value (HeLa Kyoto [1]) was 0.0673 and the “solubility change mitosis (log2)” value (HeLa Kyoto [2]) was -0.0439.
In the case of “MQIIRHSEQTLKTALISKNPVLVSQYEKLNAGEQRLMNEAFQPASDLFGPITLHSPSDWITSHPEAPQDFEQFFSDPYRKTPSPNKRSIYIQSIGSLGNTRIISEEYIKWLTGYCKAYFYGLRVKLLEPVPVSVTRCSFRVNENTHNLQIHAGDILKFLKKKKPEDAFCVVGITMIDLYPRDSWNFVFGQASLTDGVGIFSFARYGSDFYSMHYKGKVKKLKKTSSSDYSIFDNYYIPEITSVLLLRSCKTLTHEIGHIFGLRHCQWLACLMQGSNHLEEADRRPLNLCPICLHKLQCAVGFSIVERYKALVRWIDDESSDTPGATPEHSHEDNGNLPKPVEAFKEWKEWIIKCLAVLQK [AMZ2]”, the “solubility in G1/S (log2)” value (HeLa Kyoto [1]) is reported as 0.00677 and the “solubility change mitosis (log2)” value (HeLa Kyoto [2]) is reported as -0.0784.
In the case of “MQVSSLNEVKIYSLSCGKSLPEWLSDRKKRALQKKDVDVRRRIELIQDFEMPTVCTTIKVSKDGQYILATGTYKPRVRCYDTYQLSLKFERCLDSEVVTFEILSDDYSKIVFLHNDRYIEFHSQSGFYYKTRIPKFGRDFSYHYPSCDLYFVGASSEVYRLNLEQGRYLNPLQTDAAENNVCDINSVHGLFATGTIEGRVECWDPRTRNRVGLLDCALNSVTADSEINSLPTISALKFNGALTMAVGTTTGQVLLYDLRSDKPLLVKDHQYGLPIKSVHFQDSLDLILSADSRIVKMWNKNSGKIFTSLEPEHDLNDVCLYPNSGMLLTANETPKMGIYYIPVLGPAPRWCSFLDNLTEELEENPESTVYDDYKFVTKKDLENLGLTHLIGSPFLRAYMHGFFMDIRLYHKVKLMVNPFAYEEYRKDKIRQKIEETRAQRVQLKKLPKVNKELALKLIEEEEEKQKSTWKKKVKSLPNILTDDRFKVMFENPDFQVDEESEEFRLLNPLVSKISEKRKKKLRLLEQQELREKEEEEEPEGKPSDAESSESSDDEKAWVEEVRKQRRLLQQEEKVKRQERLKEDQQTVLKPQFYEIKAGEEFRSFKDSATKQKLMNKTLEDRLKIEAKNGTLSVSDTTVGSKQLTFTLKRSEQQKKQQEAEKLHRQERKRLRRSAGHLKSRHKRGRSFH [NOL10]”, the “solubility in G1/S (log2)” value (HeLa Kyoto [1]) is reported as -1.88 and the “solubility change mitosis (log2)” value (HeLa Kyoto [2]) is reported as 0.53.
“MRFMTLLFLTALAGALVCAYDPEAASAPGSGNPCHEASAAQKENAGEDPGLARQAPKPRKQRSSLLEKGLDGAKKAVGGLGKLGKDAVEDLESVGKGAVHDVKDVLDSVL [DCD]” was tested, and the “solubility in G1/S (log2)” value (HeLa Kyoto [1]) was -1.49 and the “solubility change mitosis (log2)” value (HeLa Kyoto [2]) was 1.24.
With “MRLFLWNAVLTLFVTSLIGALIPEPEVKIEVLQKPFICHRKTKGGDLMLVHYEGYLEKDGSLFHSTHKHNNGQPIWFTLGILEALKGWDQGLKGMCVGEKRKLIIPPALGYGKEGKGKIPPESTLIFNIDLLEIRNGPRSHESFQEMDLNDDWKLSKDEVKAYLKKEFEKHGAVVNESHHDALVEDIFDKEDEDKDGFISAREFTYKHDEL [FKBP14]” the “solubility in G1/S (log2)” value (HeLa Kyoto [1]) was 0.295 and the “solubility change mitosis (log2)” value (HeLa Kyoto [2]) was -0.053.
In the case of “MRLTPRALCSAAQAAWRENFPLCGRDVARWFPGHMAKGLKKMQSSLKLVDCIIEVHDARIPLSGRNPLFQETLGLKPHLLVLNKMDLADLTEQQKIMQHLEGEGLKNVIFTNCVKDENVKQIIPMVTELIGRSHRYHRKENLEYCIMVIGVPNVGKSSLINSLRRQHLRKGKATRVGGEPGITRAVMSKIQVSERPLMFLLDTPGVLAPRIESVETGLKLALCGTVLDHLVGEETMADYLLYTLNKHQRFGYVQHYGLGSACDNVERVLKSVAVKLGKTQKVKVLTGTGNVNIIQPNYPAAARDFLQTFRRGLLGSVMLDLDVLRGHPPAETLP [MTG1]”, the “solubility in G1/S (log2)” value (HeLa Kyoto [1]) is reported as 0.123 and the “solubility change mitosis (log2)” value (HeLa Kyoto [2]) is reported as -0.0796.
With “MRSRSNSGVRLDGYARLVQQTILCHQNPVTGLLPASYDQKDAWVRDNVYSILAVWGLGLAYRKNADRDEDKAKAYELEQSVVKLMRGLLHCMIRQVDKVESFKYSQSTKDSLHAKYNTKTCATVVGDDQWGHLQLDATSVYLLFLAQMTASGLHIIHSLDEVNFIQNLVFYIEAAYKTADFGIWERGDKTNQGISELNASSVGMAKAALEALDELDLFGVKGGPQSVIHVLADEVQHCQSILNSLLPRASTSKEVDASLLSVVSFPAFAVEDSQLVELTKQEIITKLQGRYGCCRFLRDGYKTPKEDPNRLYYEPAELKLFENIECEWPLFWTYFILDGVFSGNAEQVQEYKEALEAVLIKGKNGVPLLPELYSVPPDRVDEEYQNPHTVDRVPMGKLPHMWGQSLYILGSLMAEGFLAPGEIDPLNRRFSTVPKPDVVVQVSILAETEEIKTILKDKGIYVETIAEVYPIRVQPARILSHIYSSLGCNNRMKLSGRPYRHMGVLGTSKLYDIRKTIFTFTPQFIDQQQFYLALDNKMIVEMLRTDLSYLCSRWRMTGQPTITFPISHSMLDEDGTSLNSSILAALRKMQDGYFGGARVQTGKLSEFLTTSCCTHLSFMDPGPEGKLYSEDYDDNYDYLESGNWMNDYDSTSHARCGDEVARYLDHLLAHTAPHPKLAPTSQKGGLDRFQAAVQTTCDLMSLVTKAKELHVQNVHMYLPTKLFQASRPSFNLLDSPHPRQENQVPSVRVEIHLPRDQSGEVDFKALVLQLKETSSLQEQADILYMLYTMKGPDWNTELYNERSATVRELLTELYGKVGEIRHWGLIRYISGILRKKVEALDEACTDLLSHQKHLTVGLPPEPREKTISAPLPYEALTQLIDEASEGDMSISILTQEIMVYLAMYMRTQPGLFAEMFRLRIGLIIQVMATELAHSLRCSAEEATEGLMNLSPSAMKNLLHHILSGKEFGVERSVRPTDSNVSPAISIHEIGAVGATKTERTGIMQLKSEIKQVEFRRLSISAESQSPGTSMTPSSGSFPSAYDQQSSKDSRQGQWQRRRRLDGALNRVPVGFYQKVWKVLQKCHGLSVEGFVLPSSTTREMTPGEIKFSVHVESVLNRVPQPEYRQLLVEAILVLTMLADIEIHSIGSIIAVEKIVHIANDLFLQEQKTLGADDTMLAKDPASGICTLLYDSAPSGRFGTMTYLSKAAATYVQEFLPHSICAMQ [PHKA1]” the “solubility in G1/S (log2)” value (HeLa Kyoto [1]) was 0.037 and the “solubility change mitosis (log2)” value (HeLa Kyoto [2]) was -0.332.
With “MRTEAEAAGPPLEPGDFVQLPVPVIQQLYHWDCGLACSRMVLRYLGQLDDSEFERALQKLQLTRSIWTIDLAYLMHHFGVRHRFCTQTLGVDKGYKNQSFYRKHFDTEETRVNQLFAQAKACKVLVEKCTVSVKDIQAHLAQGHVAIVLVNSGVLHCDLCSSPVKYCCFTPSGHHCFCRTPDYQGHFIVLRGYNRATGCIFYNNPAYADPGMCSTSISNFEEARTSYGTDEDILFVYLDS [GUCD1]” the “solubility in G1/S (log2)” value (HeLa Kyoto [1]) was -0.455 and the “solubility change mitosis (log2)” value (HeLa Kyoto [2]) was -0.00182.
For “MSCTIEKALADAKALVERLRDHDDAAESLIEQTTALNKRVEAMKQYQEEIQELNEVARHRPRSTLVMGIQQENRQIRELQQENKELRTSLEEHQSALELIMSKYREQMFRLLMASKKDDPGIIMKLKEQHSKIDMVHRNKSEGFFLDASRHILEAPQHGLERRHLEANQNELQAHVDQITEMAAVMRKAIEIDEQQGCKEQERIFQLEQENKGLREILQITRESFLNLRKDDASESTSLSALVTNSDLSLRKS [FGFR1OP2]”, the “solubility in G1/S (log2)” value (HeLa Kyoto [1]) was 0.209 and the “solubility change mitosis (log2)” value (HeLa Kyoto [2]) was 0.0581.
“MSDRKAVIKNADMSEDMQQDAVDCATQAMEKYNIEKDIAAYIKKEFDKKYNPTWHCIVGRNFGSYVTHETKHFIYFYLGQVAILLFKSG [DYNLL2]” was tested, and the “solubility in G1/S (log2)” value (HeLa Kyoto [1]) was -0.415 and the “solubility change mitosis (log2)” value (HeLa Kyoto [2]) was 0.249.
In the case of “MSEARGEPGSGPEAGARFFCTAGRGLEPFVMREVRARLAATQVEYISGKVFFTTCSDLNMLKKLKSAERLFLLIKKQFPLIISSVSKGKIFNEMQRLINEDPGSWLNAISIWKNLLELDAKKEKLSQRDDNQLKRKVGENEIIAKKLKIEQMQKIEENRDCQLEKQIKEETLEQRDFTTKSEKFQEEEFQNDIEKAIDTHNQNDLTFRVSCRCSGTIGKAFTAQEVGKVIGIAIMKHFGWKADLRNPQLEIFIHLNDIYSVVGIPVFRVSLASRAYIKTAGLRSTIAWAMASLADIKAGAFVLDPMCGLGTILLEAAKEWPDVYYVGADVSDSQLLGTWDNLKAAGLEDKIELLKISVIELPLPSESVDIIISDIPFGKKFKLGKDIKSILQEMERVLHVGGTIVLLLSEDHHRRLTDCKESNIPFNSKDSHTDEPGIKKCLNPEEKTGAFKTASTSFEASNHKFLDRMSPFGSLVPVECYKVSLGKTDAFICKYKKSHSSGL [THUMPD2]”, the “solubility in G1/S (log2)” value (HeLa Kyoto [1]) is reported as 0.0337 and the “solubility change mitosis (log2)” value (HeLa Kyoto [2]) is reported as -0.134.
With “MSFLFSSRSSKTFKPKKNIPEGSHQYELLKHAEATLGSGNLRQAVMLPEGEDLNEWIAVNTVDFFNQINMLYGTITEFCTEASCPVMSAGPRYEYHWADGTNIKKPIKCSAPKYIDYLMTWVQDQLDDETLFPSKIGVPFPKNFMSVAKTILKRLFRVYAHIYHQHFDSVMQLQEEAHLNTSFKHFIFFVQEFNLIDRRELAPLQELIEKLGSKDR [MOB1A]” the “solubility in G1/S (log2)” value (HeLa Kyoto [1]) was 0.448 and the “solubility change mitosis (log2)” value (HeLa Kyoto [2]) was -0.11.
